# Reference: IntAct's records for PubMed 23572552
# B1: Golgi resident protein GCP60 (Homo sapiens), Q9H3P7 (parent)
# chain: MAAVLNAERLEVSVDGLTLSPDPEERPGAEGAPLLPPPLPPPSPPGSGRGPGASGEQPEPGEAAAGGAAEEARRLEQRWGFGLEELYGLALRFFKEKDGKAFHPTYEEKLKLVALHKQVLMGPYNPDTCPEVGFFDVLGNDRRREWAALGNMSKEDAMVEFVKLLNRCCHLFSTYVASHKIEKEEQEKKRKEEEERRRREEEERERLQKEEEKRRREEEERLRREEEERRRIEEERLRLEQQKQQIMAALNSQTAVQFQQYAAQQYPGNYEQQQILIRQLQEQHYQQYMQQLYQVQLAQQQAALQKQQEVVVAGSSLPTSSKVNATVPSNMMSVNGQAKTHTDSSEKELEPEAAEEALENGPKESLPVIAAPSMWTRPQIKDFKEKIQQDADSVITVGRGEVVTVRVPTHEEGSYLFWEFATDNYDIGFGVYFEWTDSPNTAVSVHVSESSDDDEEEEENIGCEEKAKKNANKPLLDEIVPVYRRDCHEEVYAGSHQYPGRGVYLLKFDNSYSLWRSKSVYYRVYYTR
# partner: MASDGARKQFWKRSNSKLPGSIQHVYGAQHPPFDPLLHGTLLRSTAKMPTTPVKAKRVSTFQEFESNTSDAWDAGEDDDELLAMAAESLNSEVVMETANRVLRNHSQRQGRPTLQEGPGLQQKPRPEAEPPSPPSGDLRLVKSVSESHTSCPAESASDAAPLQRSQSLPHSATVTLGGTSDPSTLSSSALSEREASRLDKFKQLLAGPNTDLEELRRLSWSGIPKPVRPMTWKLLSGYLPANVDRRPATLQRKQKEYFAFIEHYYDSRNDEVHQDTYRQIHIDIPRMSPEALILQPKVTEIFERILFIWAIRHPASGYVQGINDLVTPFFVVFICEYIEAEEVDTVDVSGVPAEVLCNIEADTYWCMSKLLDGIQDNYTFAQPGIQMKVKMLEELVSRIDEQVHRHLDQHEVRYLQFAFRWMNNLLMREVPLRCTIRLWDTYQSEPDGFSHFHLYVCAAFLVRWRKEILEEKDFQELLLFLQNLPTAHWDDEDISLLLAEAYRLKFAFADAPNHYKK
# B2: Golgi resident protein GCP60 (Homo sapiens), Q9H3P7 (parent)
# chain: B1 chain
# partner: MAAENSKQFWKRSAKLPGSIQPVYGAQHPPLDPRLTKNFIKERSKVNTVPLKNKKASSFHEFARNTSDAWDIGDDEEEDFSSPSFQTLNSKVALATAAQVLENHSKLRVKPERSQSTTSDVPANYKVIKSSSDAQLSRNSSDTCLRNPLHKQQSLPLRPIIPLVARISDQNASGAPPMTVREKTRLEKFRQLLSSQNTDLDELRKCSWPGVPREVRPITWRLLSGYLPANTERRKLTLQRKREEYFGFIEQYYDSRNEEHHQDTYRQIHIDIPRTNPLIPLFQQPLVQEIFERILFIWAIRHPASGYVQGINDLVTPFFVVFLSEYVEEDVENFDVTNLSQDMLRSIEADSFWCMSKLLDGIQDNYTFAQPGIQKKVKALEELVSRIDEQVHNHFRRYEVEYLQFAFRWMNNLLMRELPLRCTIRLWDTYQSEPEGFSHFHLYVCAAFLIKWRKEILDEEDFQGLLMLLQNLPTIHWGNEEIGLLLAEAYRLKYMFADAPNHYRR
# B3: Golgi resident protein GCP60 (Homo sapiens), Q9H3P7 (parent)
# chain: B1 chain
# B4: TBC1 domain family member 22A (Homo sapiens), Q8WUA7 (parent)
# chain: B1 partner
# B5: TBC1 domain family member 22B (Homo sapiens), Q9NU19 (parent)
# chain: B2 partner
# Variants of: B1
# Settings: with tb22a_human TBC1D22A
row,Variant,effect of a mutation on the interaction
1,E184A;E185A;Q186A;E187A,with no effect
2,K188A;K189A;R190A;K191A,with no effect
3,E192A;E193A;E194A;E195A,with no effect
4,R196A;R197A;R198A;R199A,with no effect
5,E200A;E201A;E202A;E203A,with no effect
6,R204A;E205A;R206A;L207A;Q208A,with no effect
7,K209A;E210A;E211A;E212A,with no effect
8,K213A;R214A;R215A;R216A,with no effect
9,R221A;L222A;R223A;R224A,with no effect
10,E225A;E226A;E227A;E228A,with no effect
11,R236A;L237A;R238A;L239A,with no effect
12,E240A;Q241A;Q242A,with no effect
13,I246A;M247A,disrupting interaction strength
14,I246A;M247A;Q253A;T254A,disrupting interaction strength
15,Q259A;Q260A;Y261A,decreasing interaction strength
16,P267A;G268A;N269A,disrupting interaction strength
17,Y270A;E271A;Q272A;Q273A,with no effect
18,Q274A;I275A;L276A;I277A,disrupting interaction strength

# Variants of: B2
# Settings: with tb22b_human TBC1D22B
row,Variant,effect of a mutation on the interaction
1,Q257A,decreasing interaction strength
2,S511A;Y512A;S513A,with no effect
3,F433A;E434A;W435A,with no effect
4,S344A;S345A,with no effect
5,Q287A,with no effect
6,Y285A,decreasing interaction strength
7,V256A;Q257A;F258A,disrupting interaction strength
8,E282A;Q283A;H284A;Y285A,disrupting interaction strength
9,Q260A,with no effect
10,I246A,decreasing interaction strength
11,Q244A,with no effect
12,Q286A,with no effect
13,Q253A,with no effect
14,Y261A,decreasing interaction strength
15,L276A,decreasing interaction strength
16,T254A,with no effect
17,Q264A;Q265A;Y266A,with no effect
18,S511A,decreasing interaction strength
19,I275A,with no effect
20,F258A,decreasing interaction strength
21,G494A;S495A;H496A,with no effect
22,Y288A,disrupting interaction strength
23,K243A,with no effect
24,Q245A,with no effect
25,Q259A,with no effect
26,S414A;Y415A;L416A,with no effect
27,F417A;W418A;E419A;F420A,with no effect
28,H284A,disrupting interaction strength

# Variants of: B2
# Settings: with tb22b_human TBC1D22B
# Remark: another data set of the same source
row,Variant,effect of a mutation on the interaction
1,Q259A;Q260A;Y261A,with no effect
2,P267A;G268A;N269A,disrupting interaction strength

# Variants of: B3
# Settings: with polg_aiva8 polg
row,Variant,effect of a mutation on the interaction
1,V256A;Q257A;F258A,with no effect
2,Q264A;Q265A;Y266A,with no effect
3,E282A;Q283A;H284A;Y285A,with no effect
4,S344A;S345A,with no effect
5,S414A;Y415A;L416A,decreasing interaction strength
6,F417A;W418A;E419A;F420A,disrupting interaction strength
7,F433A,disrupting interaction strength
8,F433A;E434A;W435A,disrupting interaction strength
9,E434A,with no effect
10,W435A,with no effect
11,G494A;S495A;H496A,disrupting interaction strength
12,H496A,with no effect
13,S511A,with no effect
14,S511A;Y512A;S513A,disrupting interaction strength
15,Y512A,decreasing interaction strength
16,S513A,with no effect

# Variants of: B3
# Settings: with polg_hkv1 polg
row,Variant,effect of a mutation on the interaction
1,V256A;Q257A;F258A,with no effect
2,Q264A;Q265A;Y266A,with no effect
3,E282A;Q283A;H284A;Y285A,with no effect
4,S344A;S345A,with no effect
5,S414A;Y415A;L416A,disrupting interaction strength
6,F417A;W418A;E419A;F420A,disrupting interaction strength
7,F433A;E434A;W435A,disrupting interaction strength
8,G494A;S495A;H496A,disrupting interaction strength
9,S511A;Y512A;S513A,disrupting interaction strength
10,K507A;F508A;D509A;N510A,disrupting interaction strength

# Variants of: B4
# Settings: with gcp60_human ACBD3, Q9H3P7
row,Variant,effect of a mutation on the interaction
1,R103A;N104A;H105A,with no effect
2,V93A;V94A;M95A;E96A,decreasing interaction strength
3,N99A;R100A,with no effect
4,N90A;S91A;E92A,with no effect
5,E96A;T97A,with no effect
6,V101A;L102A,disrupting interaction strength
7,E92A;V93A,with no effect

# Variants of: B4
# Settings: with gcp60_human ACBD3, Q9H3P7
# Remark: another data set of the same source
row,Variant,effect of a mutation on the interaction
1,Q107A;R108A;Q109A,with no effect
2,S165E,with no effect
3,S167E,with no effect
4,Q163A;R164A;S165A;Q166A,with no effect
5,Q320A,with no effect
6,E87A;S88A;L89A,with no effect
7,S165A,with no effect
8,S165A;S167A,with no effect
9,L81A;L82A,with no effect
10,T149E;S150E,decreasing interaction strength
11,S132A,decreasing interaction strength
12,S165E;S167E,with no effect

# Variants of: B5
# Settings: with gcp60_human ACBD3, Q9H3P7
row,Variant,effect of a mutation on the interaction
1,S140E;S141E,with no effect
2,E102A;N103A;H104A,with no effect
3,V100A;L101A,disrupting interaction strength
4,Q99A,with no effect
5,S58E,with no effect
6,K91A;V92A,with no effect
7,S168E,with no effect
8,L88A;N89A;S90A,decreasing interaction strength
9,S114E,with no effect
10,S116E;T117E;T118E;S119E,with no effect
11,T143E,with no effect
12,L94A;T96A,with no effect
